# Values quoted from earlier work, collected in patent US20180221339A1, “COMPOSITIONS AND METHODS FOR TREATING AND DIAGNOSING OCULAR DISORDERS” (TRANSLATUM MEDICUS, INC., priority 2015, published 2018).
# Molecular target: T1, complement factor D (CFD) (Homo sapiens, UniProt P00746)
# T1 construct: host or cells: patients (endogenous protein, in vivo)
# Details: phase II study, 18 month period; most robust in patients with complement factor H and I polymorphisms
# T1 sequence (P00746 26-253): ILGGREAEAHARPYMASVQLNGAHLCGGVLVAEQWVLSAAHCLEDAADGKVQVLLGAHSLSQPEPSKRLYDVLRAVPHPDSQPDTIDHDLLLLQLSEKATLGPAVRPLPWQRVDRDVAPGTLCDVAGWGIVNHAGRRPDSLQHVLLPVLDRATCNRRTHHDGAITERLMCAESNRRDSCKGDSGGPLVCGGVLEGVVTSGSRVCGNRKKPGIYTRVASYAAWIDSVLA
substance,measurement,value
Lampilizumab: complement factor D (CFD) inhibitor; anti-factor D antibody (Genentech),growth (expansion) of geographic atrophy,"can slow the growth, i.e. expansion, of geographic atrophy"
